{
  "source": "paper PMC4197845",
  "about": "(International journal of cancer. Journal international du …, 2011)",
  "key": {"[1]": {"target": "EGFR as used for SPR (BIAcore) (Homo sapiens, UniProt P00533)", "experiment": "SPR"}, "[2]": {"target": "EGFR extra-cellular domain (EGFR-ECD; a.a. 1-614) fused to a human IgG1 Fc", "experiment": "ELISA"}},
  "data": [
    {"binder": "38G7 nanobody (VHH) VHH: EVQLVESGGGLVQAGGSLRLSCAASGRTFSSYVMGWFRQATGKEREFVATIAWDSGSTYYADSVKGRFTISRDNAKNTVHLQMNSLKPEDTAVYYCAASYNVYYNNYYYPISRDEYDYWGQGTQVTVSS", "values": [
      {"measurement": "koff", "setting": "[1]", "result": 0.0002, "unit": "s⁻¹"},
      {"measurement": "IC50", "setting": "[2]", "result": 10, "unit": "nM"}
    ]}
  ]
}
